# Measured values from patent US11633499B2, “Anti-TMEM-180 antibody, anticancer drug and cancer testing method” (NATIONAL CANCER CENTER JAPAN, priority 2016, dated 2023).
# T1: exosomes presenting TMEM-180 from DLD-1 cell line (Homo sapiens, UniProt Q14CX5)
# T1 construct: endogenous in cells; host or cells: DLD-1 colon cancer cell line (parent / wild type); culture supernatant exosomes in A20
# T1 sequence (Q14CX5 1-517): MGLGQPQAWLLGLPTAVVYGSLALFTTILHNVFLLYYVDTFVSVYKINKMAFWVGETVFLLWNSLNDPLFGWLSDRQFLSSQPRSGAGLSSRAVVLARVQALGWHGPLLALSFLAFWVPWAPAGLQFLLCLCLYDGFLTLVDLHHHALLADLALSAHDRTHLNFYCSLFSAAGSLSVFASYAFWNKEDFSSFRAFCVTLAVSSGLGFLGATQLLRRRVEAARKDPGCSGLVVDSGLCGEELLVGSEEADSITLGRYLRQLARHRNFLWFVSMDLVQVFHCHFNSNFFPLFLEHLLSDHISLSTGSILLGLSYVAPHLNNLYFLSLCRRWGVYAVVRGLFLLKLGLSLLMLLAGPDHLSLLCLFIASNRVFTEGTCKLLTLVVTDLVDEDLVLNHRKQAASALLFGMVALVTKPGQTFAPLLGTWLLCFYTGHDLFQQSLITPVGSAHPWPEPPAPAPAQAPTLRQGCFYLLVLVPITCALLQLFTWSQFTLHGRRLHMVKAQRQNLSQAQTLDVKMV
# Assays:
# [1] = test system: normal tissues (skin, brain, small intestine, liver, heart, lung, kidney); assay: Immune histochemistry of normal human tissues; type: binding
# Description: The paraffin sections were prepared from the tissue specimens in the same way as shown in Example 6 according to a routine procedure. The prepared sections were subjected to reactions with 1 μg/mL of one of the above antibodies. An HRP-labelled anti rat antibody was used as a secondary antibody, which emitted light with DAB. The observation was performed after hematoxylin staining.
# [2] = molecular target: T1, exosomes presenting TMEM-180 from DLD-1 cell line; assay: Detection of TMEM-180 exosomes in culture supernatant (immobilized anti-TMEM-180 antibody, anti-CD9 detection); type: binding; conditions: immobilized antibody 5 μg/mL; detection with anti-CD9 antibody; FIG. 18
# Description: Thus, the inventors constructed a system for detecting exosomes in the culture supernatant. In this system, an anti-TMEM-180 antibody was immobilized on the surface of the plate, and exosomes containing TMEM-180 which were bound to the immobilized antibody were detected with an anti-CD9 antibody which CD9 is an exosome maker. The DLD-1 cell line (also referred to as “wild type DLD-1 cell line”) was used as cells. The TMEM-180 knockdown DLD-1 cell line and K562 cell line were used as negative controls.
# Specifically, an anti-TMEM-180 antibody was diluted with phosphate buffer such that the concentration will be 5 μg/mL, and then added to a 96 well plate (Maxisorp #442404, Thermo Fisher co., Ltd.) at 50 μL/well. The immobilization reaction was performed by incubation for 2 hours at room temperature or for overnight at 4° C. The plate after the immobilization was washed three times with 300 μL/well of a plate washing solution. The plate was blocked with 200 μL/well of a blocking agent (1% BSA/TBS-T), and allowed to stand for 1 hour at room temperature or for overnight at 4° C. […] Then, the optical density at 450 nm was measured with a plate reader.
# [3] = test system: cell lines derived from cancers (ATCC and JCRB); assay: Reactivity of antibodies to cancer-derived cell lines by FACS (Table 23); type: binding
# Description: Cancer cells targeted for measurement were cultured in medium and then added to a V-bottom 96-well plate (Corning Incorporated) to a concentration of 1×10^5 cells/well. The plate was centrifuged for 3 minutes at 440×g and 4° C. followed by removing the supernatant, adding antibody-producing hybridoma culture supernatant or antibody solution to the cell pellet at 50 μL/well and suspending therein. After allowing to react for 45 minutes on ice, the plate was washed three times with a mixture of 0.1% BSA, 2 mM EDTA and PBS at 200 μL/well. The supernatant was removed and secondary antibody was added to the cell pellet at 50 μL/well followed by suspending the cells therein. ALEXAFLUOR 647@ (fluorescent compound) goat anti-rat IgG (H-L) (Life Technologies Corporation) was used for the secondary antibody after diluting 400-fold with a mixture of 0.1% BSA, 2 mM EDTA and PBS. After allowing to react for 45 minutes on ice, the plate was washed three times with a mixture of 0.1% BSA, 2 mM EDTA and PBS at 200 μL/well. After removing the supernatant, 50 ng/mL of propidium iodide, 0.1% BSA, 2 mM EDTA and PBS were added to the cell pellet at 250 µL/well followed by suspending therein. The cells stained in this manner were measured using a flow cytometer such as the Guava easyCyte 8HT (Merck Millipore Corporation) followed by analysis of the resulting data using FlowJO (Tomy Digital Biology Co., Ltd.). FACS analysis was carried out using colon cancer, brain tumor and hematologic cancer.
# Cancer-detection rates were tested using monoclonal antibodies (the 669 antibody, 1052 antibody, 1105 antibody, and 1361 antibody).
# In this Example, the reactivity of the antibodies to the cell lines derived from cancers which were obtained from ATCC and JCRB was analyzed by FACS.
# [4] = test system: cell lines derived from cancers (ATCC and JCRB); assay: as above; type: binding; remark: listed apart in the source
# normal stroma = assay: Reactivity to normal stroma; type: binding; conditions: compared with the 1361 antibody
# wild type DLD-1 cells = assay: ADCC activity (51Cr release, TK176V effector cells), wild type DLD-1; type: cell-based, human; conditions: ET ratio 40; 4 hours; 0.064 to 1,000 ng/mL; FIGS. 20A to 20D
# Description: Specifically, TK176V (a natural killer cell line stably expressing FcγRIII) was used as an effector cell, which was obtained from Chemicals Evaluation and Research Institute, Japan. The wild type DLD-1 cell line was used as a target cell.
# T1 76V was cultured in RPM11640 containing 10 ng/mL IL-2 and 10% FBS. For passages, the medium was diluted with a fresh medium every 2 to 3 days. In the passage, the cells were detached by a trypsin treatment and then suspended in a fresh medium to be plated on a dish every 2 to 3 days.
# The measurement of the ADCC activity was performed as described below.
# First, the amount of 51Cr release was measured when only the target cells were cultured in medium as a negative control, which is referred to as “Spontaneous release measurement”. The amount of 51 Cr release was measured when the all target cells were damaged by adding 0.1% TRITON™ (surfactant) X-100, which is referred to as “Max release measurement.”
# 1) Adding DLD-1 WT labelled with 50 μCi of ^51Cr to a U-bottom, 96 well plate at 5,000 cells/50 μL/well.
# 2) Adding TK176V at 200,000 cells/50 μL/well (ET ratio: 40): A medium was added at 50 μL/well to the well for Spontaneous release measurement and the well for Max release measurement. […]
molecule,measurement,setting,value
"clone 1361: rat IgG anti-TMEM-180 monoclonal antibody; variable regions SEQ ID NOs: 70 and 71 (antibody, V domains shown) VH: MDIRLSLVFLVLFIKGVQCEVQLVESGGGLVQPGRSLKLSCVASGFTFNNYWMTWIRQAPGKGLEWVASITNTGGSTYYPDSVKGRFTISRDYAKSTLYLQMNSLRSEDTATYYCTRAGYSSYPDYFDYWGQGVMLTVSS VL: MMAPVQLLGLLLLWLPAMRCNIQMTQSPSLLSASVGDRVTLSCKAGQNIYNYLAWYQQKLGEAPKLLIYNANSLQTGIPSRFSGSGSGTDFTLTISSLQPEDVATYFCQQYSSGWTFGGGTKLELK","staining of normal tissues from skin, brain, small intestine, liver, heart, lung and kidney","[1]; 1 μg/mL, paraffin sections",negative
same,reactivity to normal skin tissues,[1]; FIG. 13,low reactivity
same,detection of exosomes presenting TMEM-180 in DLD-1 culture supernatant,[2],successfully detected
same,"Detection Sensitivity of Cancers, P/N",[3]; Cancer Type: Brain,(7/7)
same,"Detection Sensitivity of Cancers, P/N",[3]; Cancer Type: Colon,(7/10)
same,"Detection Sensitivity of Cancers, Percentage (%)",[3]; Cancer Type: Colon,70%
same,"recognition of cancers, summary of Table 23","[3]; comparison of 1361, 669, 1052, 1105",highest sensitivity
same,"Detection Sensitivity of Cancers, P/N",[4]; Cancer Type: Bladder,(3/4)
same,"Detection Sensitivity of Cancers, Percentage (%)",[4]; Cancer Type: Bladder,75%
same,"Detection Sensitivity of Cancers, Percentage (%)",[4]; Cancer Type: Brain,100%
same,"Detection Sensitivity of Cancers, P/N",[4]; Cancer Type: Brest,(2/6)
same,"Detection Sensitivity of Cancers, Percentage (%)",[4]; Cancer Type: Brest,33%
same,"Detection Sensitivity of Cancers, P/N",[4]; Cancer Type: Gastric,(5/8)
same,"Detection Sensitivity of Cancers, Percentage (%)",[4]; Cancer Type: Gastric,63%
same,"Detection Sensitivity of Cancers, P/N",[4]; Cancer Type: Kidney,(3/3)
same,"Detection Sensitivity of Cancers, Percentage (%)",[4]; Cancer Type: Kidney,100%
same,"Detection Sensitivity of Cancers, P/N",[4]; Cancer Type: Pancreas,(9/9)
same,"Detection Sensitivity of Cancers, Percentage (%)",[4]; Cancer Type: Pancreas,100%
same,"Detection Sensitivity of Cancers, P/N",[4]; Cancer Type: Prostate,(2/3)
same,"Detection Sensitivity of Cancers, Percentage (%)",[4]; Cancer Type: Prostate,67%
"1361-7 clone: variant having an amino acid substitution S82A in the 1361 antibody (antibody, V domains shown) VH: EVQLVESGGGLVQPGRSLKLSCVASGFTFNNYWMTWIRQAPGKGLEWVASITNTGGSTYYPDAVKGRFTISRDYAKSTLYLQMNSLRSEDTATYYCTRAGYSSYPDYFDYWGQGVMLTVSS VL: NIQMTQSPSLLSASVGDRVTLSCKAGQNIYNYLAWYQQKLGEAPKLLIYNANSLQTGIPSRFSGSGSGTDFTLTISSLQPEDVATYFCQQYSSGWTFGGGTKLELK",reactivity to normal stroma,normal stroma,almost the same as that of the 1361 antibody
Variant 1: Fc-modified clone of 1361-5 with triple substitutions S239D/A330L/1332E in the Fc region (antibody) heavy: EVQLVESGGGLVQPGRSLKLSCVASGFTFNNYWMTWIRQAPGKGLEWVASITNTGGSTAYPDSVKGRFTISRDYAKSTLYLQMNSLRSEDTATYYCTRAGYSSYPDYFDYWGQGVMLTVSSASTKGPSVFPLAPSSKSTSGGTAALGCLVKDYFPEPVTVSWNSGALTSGVHTFPAVLQSSGLYSLSSVVTVPSSSLGTQTYICNVNHKPSNTKVDKKVEPKSCDKTHTCPPCPAPELLGGPDVFLFPPKPKDTLMISRTPEVTCVVVDVSHEDPEVKFNWYVDGVEVHNAKTKPREEQYNSTYRVVSVLTVLHQDWLNGKEYKCKVSNKALPLPEEKTISKAKGQPREPQVYTLPPSRDELTKNQVSLTCLVKGFYPSDIAVEWESNGQPENNYKTTPPVLDSDGSFFLYSKLTVDKSRWQQGNVFSCSVMHEALHNHYTQKSLSLSPGK light: MMAPVQLLGLLLLWLPAMRCNIQMTQSPSLLSASVGDRVTLSCKAGQNIYNYLAWYQQKLGEAPKLLIYNANSLQTGIPSRFSGSGSGTDFTLTISSLQPEDVATYFCQQYSSGWTFGGGTKLELKRTVAAPSVFIFPPSDEQLKSGTASVVCLLNNFYPREAKVQWKVDNALQSGNSQESVTEQDSKDSTYSLSSTLTLSKADYEKHKVYACEVTHQGLSSPVTKSFNRGEC,ADCC activity against wild type DLD-1 cells,wild type DLD-1 cells,equal to or stronger than that of the 1361-5 antibody
Variant 2: Fc-modified clone of 1361-5 with triple substitutions S239D/1332E/E333A in the Fc region (antibody) heavy: EVQLVESGGGLVQPGRSLKLSCVASGFTFNNYWMTWIRQAPGKGLEWVASITNTGGSTAYPDSVKGRFTISRDYAKSTLYLQMNSLRSEDTATYYCTRAGYSSYPDYFDYWGQGVMLTVSSASTKGPSVFPLAPSSKSTSGGTAALGCLVKDYFPEPVTVSWNSGALTSGVHTFPAVLQSSGLYSLSSVVTVPSSSLGTQTYICNVNHKPSNTKVDKKVEPKSCDKTHTCPPCPAPELLGGPDVFLFPPKPKDTLMISRTPEVTCVVVDVSHEDPEVKFNWYVDGVEVHNAKTKPREEQYNSTYRVVSVLTVLHQDWLNGKEYKCKVSNKALPAPEAKTISKAKGQPREPQVYTLPPSRDELTKNQVSLTCLVKGFYPSDIAVEWESNGQPENNYKTTPPVLDSDGSFFLYSKLTVDKSRWQQGNVFSCSVMHEALHNHYTQKSLSLSPGK light: MMAPVQLLGLLLLWLPAMRCNIQMTQSPSLLSASVGDRVTLSCKAGQNIYNYLAWYQQKLGEAPKLLIYNANSLQTGIPSRFSGSGSGTDFTLTISSLQPEDVATYFCQQYSSGWTFGGGTKLELKRTVAAPSVFIFPPSDEQLKSGTASVVCLLNNFYPREAKVQWKVDNALQSGNSQESVTEQDSKDSTYSLSSTLTLSKADYEKHKVYACEVTHQGLSSPVTKSFNRGEC,ADCC activity against wild type DLD-1 cells,wild type DLD-1 cells,equal to or stronger than that of the 1361-5 antibody
